Reference: patent EP4537907A1 (Enthera S.r.l., dated 2025)

Experiments:
[1] = molecular target: T1, recombinant human CD248 (internally produced) (human, UniProt Q9HCU0 18-687, limits assumed, biotinylated in the inhibition ELISA); test: competition ELISA: purified IgG4 (S228P/L235E) with biotinylated human CD248, added to immobilised human IGFBP5, Streptavidin-HRP
T1 construct: Soluble recombinant protein; also called human recombinant CD248; biotinylated CD248 (internally produced)
T1 sequence (looked up): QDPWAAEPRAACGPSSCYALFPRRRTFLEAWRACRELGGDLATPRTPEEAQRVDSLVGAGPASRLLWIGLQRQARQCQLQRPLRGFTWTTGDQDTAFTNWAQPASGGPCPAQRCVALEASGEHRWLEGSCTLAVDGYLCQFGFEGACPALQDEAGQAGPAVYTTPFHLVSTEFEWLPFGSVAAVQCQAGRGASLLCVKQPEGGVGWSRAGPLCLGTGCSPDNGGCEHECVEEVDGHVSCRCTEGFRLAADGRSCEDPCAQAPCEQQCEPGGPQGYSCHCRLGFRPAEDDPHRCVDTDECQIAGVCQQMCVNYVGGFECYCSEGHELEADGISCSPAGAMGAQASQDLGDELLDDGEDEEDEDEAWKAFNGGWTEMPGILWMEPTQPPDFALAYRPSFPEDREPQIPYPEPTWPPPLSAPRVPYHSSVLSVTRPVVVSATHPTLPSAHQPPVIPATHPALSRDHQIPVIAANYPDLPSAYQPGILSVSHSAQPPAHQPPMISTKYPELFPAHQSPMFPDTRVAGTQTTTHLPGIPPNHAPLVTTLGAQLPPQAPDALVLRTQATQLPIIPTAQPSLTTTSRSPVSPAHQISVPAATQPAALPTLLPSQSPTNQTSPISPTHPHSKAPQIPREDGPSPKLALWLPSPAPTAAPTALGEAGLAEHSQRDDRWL

[2] = molecular target: T1, recombinant human CD248 (internally …); test: BLI (Octet platform, BLItz System), mAb captured via Fc on AHC biosensor, soluble antigen at different concentrations
[3] = molecular target: T2, recombinant mouse CD248 (internally produced) (mouse, UniProt Q91V98 18-695, limits assumed); test: as above
T2 construct: also called murine recombinant CD248; Murine CD248
T2 sequence (looked up): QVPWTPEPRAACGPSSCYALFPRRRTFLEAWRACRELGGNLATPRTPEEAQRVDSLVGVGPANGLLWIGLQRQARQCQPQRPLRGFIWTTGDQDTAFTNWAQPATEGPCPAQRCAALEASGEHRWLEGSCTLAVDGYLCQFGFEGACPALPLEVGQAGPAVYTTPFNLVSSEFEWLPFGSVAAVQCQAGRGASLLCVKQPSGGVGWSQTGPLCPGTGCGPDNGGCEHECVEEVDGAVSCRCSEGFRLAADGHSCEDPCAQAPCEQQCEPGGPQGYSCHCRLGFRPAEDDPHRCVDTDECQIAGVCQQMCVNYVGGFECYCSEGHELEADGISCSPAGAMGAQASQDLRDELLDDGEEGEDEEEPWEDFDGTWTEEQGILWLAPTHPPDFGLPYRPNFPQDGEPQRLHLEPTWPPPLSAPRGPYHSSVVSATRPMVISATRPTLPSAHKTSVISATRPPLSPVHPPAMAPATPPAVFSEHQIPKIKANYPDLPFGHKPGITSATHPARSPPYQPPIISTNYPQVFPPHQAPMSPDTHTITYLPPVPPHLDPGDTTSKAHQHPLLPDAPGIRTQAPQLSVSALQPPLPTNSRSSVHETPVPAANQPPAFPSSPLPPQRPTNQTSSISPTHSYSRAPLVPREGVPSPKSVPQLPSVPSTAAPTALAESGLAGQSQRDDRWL

[4] = molecular target: T3, human CD248 expressed on the cell membrane of transiently transfected HEK 293 cells (human, UniProt Q9HCU0 18-757); test: flow cytometry on transiently transfected HEK 293 cells, secondary anti-human IgG, antibody concentration series
T3 construct: whole, on cells; also called human CD248+ cells; CD248-positive cells
T3 sequence (looked up): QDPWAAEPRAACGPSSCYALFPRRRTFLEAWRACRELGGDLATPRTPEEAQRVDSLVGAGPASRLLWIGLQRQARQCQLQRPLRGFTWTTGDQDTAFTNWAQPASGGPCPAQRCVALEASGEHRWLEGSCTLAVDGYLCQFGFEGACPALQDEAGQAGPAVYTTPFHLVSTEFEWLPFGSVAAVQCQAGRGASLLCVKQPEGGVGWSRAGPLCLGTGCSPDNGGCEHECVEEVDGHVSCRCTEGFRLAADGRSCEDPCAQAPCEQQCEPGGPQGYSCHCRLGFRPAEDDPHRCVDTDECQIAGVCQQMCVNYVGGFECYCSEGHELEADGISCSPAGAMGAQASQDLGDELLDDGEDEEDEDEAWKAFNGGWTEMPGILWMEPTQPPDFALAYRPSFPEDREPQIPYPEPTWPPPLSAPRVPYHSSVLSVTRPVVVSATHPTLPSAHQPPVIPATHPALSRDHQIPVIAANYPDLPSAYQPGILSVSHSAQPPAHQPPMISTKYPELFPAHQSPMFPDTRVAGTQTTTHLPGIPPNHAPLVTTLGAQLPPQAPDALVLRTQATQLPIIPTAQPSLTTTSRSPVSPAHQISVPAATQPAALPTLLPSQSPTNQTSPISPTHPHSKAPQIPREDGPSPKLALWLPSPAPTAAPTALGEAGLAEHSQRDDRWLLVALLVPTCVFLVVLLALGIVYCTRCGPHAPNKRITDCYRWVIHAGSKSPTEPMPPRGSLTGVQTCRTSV

[5] = molecular target: T4, mouse CD248 expressed on the cell membrane of transiently transfected HEK 293 cells (mouse, UniProt Q91V98 18-765); test: as above
T4 construct: whole, on cells; also called mouse CD248+ cells
T4 sequence (looked up): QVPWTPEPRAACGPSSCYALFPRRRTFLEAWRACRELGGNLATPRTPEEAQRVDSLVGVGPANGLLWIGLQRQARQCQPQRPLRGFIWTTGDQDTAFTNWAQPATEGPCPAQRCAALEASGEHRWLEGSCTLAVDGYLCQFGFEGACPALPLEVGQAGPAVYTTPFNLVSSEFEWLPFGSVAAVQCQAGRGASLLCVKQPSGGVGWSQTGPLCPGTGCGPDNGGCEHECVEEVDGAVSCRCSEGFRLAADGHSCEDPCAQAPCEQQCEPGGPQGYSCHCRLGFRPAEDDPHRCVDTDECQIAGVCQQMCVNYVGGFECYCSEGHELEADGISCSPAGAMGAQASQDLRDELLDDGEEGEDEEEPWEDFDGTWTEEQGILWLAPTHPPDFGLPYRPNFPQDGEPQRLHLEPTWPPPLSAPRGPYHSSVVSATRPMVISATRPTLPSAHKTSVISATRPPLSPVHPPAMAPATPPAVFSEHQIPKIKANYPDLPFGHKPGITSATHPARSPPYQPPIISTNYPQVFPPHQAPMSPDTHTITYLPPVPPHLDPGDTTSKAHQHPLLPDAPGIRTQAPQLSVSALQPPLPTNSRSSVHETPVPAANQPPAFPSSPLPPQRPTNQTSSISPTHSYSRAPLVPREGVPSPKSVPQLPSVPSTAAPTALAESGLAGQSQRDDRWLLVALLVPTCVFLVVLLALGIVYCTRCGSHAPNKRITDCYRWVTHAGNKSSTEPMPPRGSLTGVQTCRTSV

[6] = molecular target: T5, irrelevant antigen expressed on HEK 293 cells after transient transfection (human); test: flow cytometry on HEK 293 cells transiently transfected with an irrelevant antigen (negative control), secondary anti-human IgG
T5 construct: Negative control antigen; also called irrelevant human antigen; irrelevant Ag+ cells

B1: YU1023-B03 (antibody, human IgG4, V domains shown)
VH: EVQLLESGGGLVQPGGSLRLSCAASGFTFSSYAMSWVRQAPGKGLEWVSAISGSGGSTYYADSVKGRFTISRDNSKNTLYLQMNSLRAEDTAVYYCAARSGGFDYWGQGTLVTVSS
VL: DVVMTQSPLSLPVTPGEPASISCRSSQSLLHSNGYNYLDWYVQKPGQSPQRLIYFTSNRASGVPDRFSGSGSGTDFTLKISRVEAEDVGVYYCMQSIQLPRTFGQGTKVEIK
notes: Tested as full human IgG4 carrying the S228P/L235E mutations
IC50 [1]: 47.6 µg/mL | Kd [2]: 18.6 nM | Kd [3]: 7.99 nM | EC50 [4]: 0.0401 µg/mL | EC50 [5]: 0.0184 µg/mL | EC50 [6]: 3.66 µg/mL

B2: YU1023-E03 (antibody, human IgG4, V domains shown)
VH: EVQLLESGGGVVQPGRSLRLSCAASGFTFSSYAMHWVRQAPGKGLEWVAVISYDGSNKYYADSVKGRFTISRDNSKNTLYLQMNSLRAEDTAVYYCARSIAAAGTRWFDPWGQGTLVTVSS
VL: DIQLTQSPSSVSASVGDRVTITCRASQGISSWLAWYQQKPGKAPKLLIYAASSLQSGVPSRFSGSGSGTDFTLTISSLQPEDFATYYCQQANSFPLTFGGGTKLEIK
notes: Tested as full human IgG4 carrying the S228P/L235E mutations; It was scarcely produced (<0.1 mg/ml)
IC50 [1]: 17.4 µg/mL | EC50 [4]: 1.49 µg/mL | EC50 [5]: 0.891 µg/mL | EC50 [6]: 3.84 µg/mL

B3: YU1025-B07 (antibody, V domains shown)
VH: QVQLVQSGGGVVQPGRSLRLSCAASGFTFSSYAMHWVRQAPGKGLEWVAVISYDGSNKYYADSVKGRFTISRDNSKNTLYLQMNSLRAEDTAVYYCARTKARWFGVTTYMDVWGKGTLVTVSS
VL: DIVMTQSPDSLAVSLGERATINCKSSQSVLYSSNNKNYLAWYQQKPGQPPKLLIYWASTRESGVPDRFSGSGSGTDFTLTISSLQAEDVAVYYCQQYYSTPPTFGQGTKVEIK
notes: as for B1
IC50 [1]: 19.2 µg/mL | Kd [2]: 11.7 nM | Kd [3]: 14.2 nM | EC50 [4]: 0.0236 µg/mL | EC50 [5]: 0.0216 µg/mL | EC50 [6]: 1.68 µg/mL

B4: YU1024-G01 (antibody, human IgG4, V domains shown)
VH: QVQLQESGGGVVQPGRSLRLSCAASGFTFSSYAMHWVRQAPGKGLEWVAVISYDGSNKYYADSVKGRFTISRDNSKNTLYLQMNSLRAEDTAVYYCARNNHPRGERLPQYWGQGTLVTVSS
VL: DIQLTQSPSSLSASVGDRVTITCRASQSVGSYLNWYQHKPGKAPKLLIYVASRLQSGVPSRFSGSGSGTDFTLTINSLQPEDFATYYCQQSYSTPLTFGGGTKVEIK
notes: as for B1
IC50 [1]: 4.7 µg/mL | Kd [2]: 3.78 nM | Kd [3]: 3.91 nM | EC50 [4]: 0.0121 µg/mL | EC50 [5]: ~0.00985 µg/mL | EC50 [6]: 2.11 µg/mL

B5: YU1023-A02 (antibody, human IgG4, V domains shown)
VH: QVQLVESGPGLVKPSQTLSLTCTVSGGSISSGGYYWSWIRQHPGKGLEWIGYIYYSGSTYYNPSLKSRVTISVDTSKNQFSLKLSSVTAADTAVYYCARVRGRSATYFDYWGQGTTVTVSS
VL: QSVLTQPPSVSGAPGQRVTISCTGSSSNIGAGYDVRWYQQLPGTAPKLLIYANNNRPSGVPDRFSGSKSGTSASLAITGLQTEDEADYYCQSYDISLSGSLFGGGTKLTVL
notes: Tested as full human IgG4 carrying the S228P/L235E mutations; also called YU1023-A02 mAb
IC50 [1]: 20.8 µg/mL | Kd [2]: 9.94 nM | Kd [3]: 10.1 nM | EC50 [4]: 0.0523 µg/mL | EC50 [5]: 0.0388 µg/mL | EC50 [6]: 3.16 µg/mL
